Positions count from the first letter of the chain named.
B1: SEQ ID NO 146 (designed binder)
chain: MLPAPKNLVVSRVTEDSARLSWTAPDAAFDSFYIAYAEPRPDGEAITLHVPGSERSYDLTGLKPGTEYSVLIHGVKGGLLSSPLSAIFTT
notes: FN3 domain
B2: SEQ ID NO 198 (designed binder)
chain: B1 chain with T47I, H49E, S85V, I87Y
notes: FN3 domain
B3: SEQ ID NO 180 (designed binder)
chain: B1 chain with T47A, H49L, S85V, I87Q
notes: FN3 domain
B4: SEQ ID NO 189 (designed binder)
chain: B1 chain with T47Q, H49T, L62P, S69W, H73Q, L79G, L80S, S82V, S85V, I87Y
notes: FN3 domain
B5: SEQ ID NO 195 (designed binder)
chain: B1 chain with T47I, H49D, A86S
notes: FN3 domain
B6: SEQ ID NO 156 (designed binder)
chain: B1 chain with T47F, H49Q, S85A, I87V
notes: FN3 domain
B7: SEQ ID NO 190 (designed binder)
chain: B1 chain with T47S, H49D, S85E, I87S
notes: FN3 domain
B8: SEQ ID NO 149 (designed binder)
chain: B1 chain with T47Q, H49W
notes: FN3 domain
B9: SEQ ID NO 164 (designed binder)
chain: B1 chain with T47I, H49R, S85V
notes: FN3 domain
B10: SEQ ID NO 166 (designed binder)
chain: B1 chain with T47F, H49Q, S85N, I87F
notes: FN3 domain
B11: SEQ ID NO 157 (designed binder)
chain: B1 chain with T47L, F88S
notes: FN3 domain
B12: SEQ ID NO 193 (designed binder)
chain: B1 chain with T47S, H49S, S85I, I87N
notes: FN3 domain
B13: SEQ ID NO 167 (designed binder)
chain: B1 chain with Y33F, A35G, A37L, R40Q, D42P, T47I, H49G, S85H, I87Y, F88S
notes: FN3 domain
B14: SEQ ID NO 158 (designed binder)
chain: B1 chain with T47I, H49Q, I87V
notes: FN3 domain
B15: SEQ ID NO 165 (designed binder)
chain: B1 chain with T47V, H49Q, S85A, I87W
notes: FN3 domain
B16: SEQ ID NO 154 (designed binder)
chain: B1 chain with T47G, H49W, S85I, I87H
notes: FN3 domain
B17: SEQ ID NO 188 (designed binder)
chain: B1 chain with T47G, H49G, S85D, I87S
notes: FN3 domain
B18: SEQ ID NO 196 (designed binder)
chain: B1 chain with T47V, H49W, S85R, I87S
notes: FN3 domain
B19: SEQ ID NO 197 (designed binder)
chain: B1 chain with T47K, H49D, S85V, I87F
notes: FN3 domain
B20: SEQ ID NO 170 (designed binder)
chain: B1 chain with T47H, H49L, S85L, I87H
notes: FN3 domain
B21: SEQ ID NO 147 (designed binder)
chain: B1 chain with T47V, H49E, S85D, I87H
notes: FN3 domain
B22: SEQ ID NO 175 (designed binder)
chain: MLPAPKNLVVSRVTEDSARLSWTAPDAAFDSFRISYCETFYHGEAIVLTVPGSERSYDLTGLKPGTEYSVLIHGVKGGLLSSPLIAKFTT
notes: FN3 domain
B23: SEQ ID NO 148 (designed binder)
chain: B1 chain with T47A, S85R, I87V
notes: FN3 domain
B24: SEQ ID NO 186 (designed binder)
chain: B1 chain with T47Q, H49G
notes: FN3 domain
B25: SEQ ID NO 155 (designed binder)
chain: B1 chain with T47W, H49V, S85H, I87R
notes: FN3 domain
B26: SEQ ID NO 182 (designed binder)
chain: B1 chain with T47D, S85H, I87L
notes: FN3 domain
B27: SEQ ID NO 169 (designed binder)
chain: B1 chain with T47L, H49L, I87V
notes: FN3 domain
B28: SEQ ID NO 159 (designed binder)
chain: B1 chain with T47Y, H49K, S85V, I87H
notes: FN3 domain
B29: SEQ ID NO 150 (designed binder)
chain: B1 chain with W22R, T47V, H49I
notes: FN3 domain
B30: SEQ ID NO 185 (designed binder)
chain: B1 chain with T47Y, H49G, S85R, I87K
notes: FN3 domain
B31: SEQ ID NO 160 (designed binder)
chain: B1 chain with T47V, H49T, S85L, I87Y
notes: FN3 domain
B32: SEQ ID NO 194 (designed binder)
chain: B1 chain with T47A, H49L, F88V
notes: FN3 domain
B33: SEQ ID NO 153 (designed binder)
chain: B1 chain with T47A
notes: FN3 domain
B34: SEQ ID NO 179 (designed binder)
chain: B1 chain with Y33P, T47V, H49T, I87F
notes: FN3 domain
B35: SEQ ID NO 171 (designed binder)
chain: B1 chain with T47Q, H49W, S85D, I87Y
notes: FN3 domain
B36: SEQ ID NO 152 (designed binder)
chain: B1 chain with H49D, S85Y, I87F
notes: FN3 domain
B37: SEQ ID NO 183 (designed binder)
chain: B1 chain with T47L, H49D, L79F, L80P, S82M
notes: FN3 domain
B38: SEQ ID NO 178 (designed binder)
chain: B1 chain with T47Q, H49Q, F88V
notes: FN3 domain

molecular target: T1, recombinant biotinylated human CD71 extracellular domain (human, UniProt P02786 89-760, biotinylated); test: solution ELISA
T1 construct: extracellular domain; also called hCD71; huCD71 ECD
T1 sequence (P02786 other isoform, or with tags, fused parts or gaps): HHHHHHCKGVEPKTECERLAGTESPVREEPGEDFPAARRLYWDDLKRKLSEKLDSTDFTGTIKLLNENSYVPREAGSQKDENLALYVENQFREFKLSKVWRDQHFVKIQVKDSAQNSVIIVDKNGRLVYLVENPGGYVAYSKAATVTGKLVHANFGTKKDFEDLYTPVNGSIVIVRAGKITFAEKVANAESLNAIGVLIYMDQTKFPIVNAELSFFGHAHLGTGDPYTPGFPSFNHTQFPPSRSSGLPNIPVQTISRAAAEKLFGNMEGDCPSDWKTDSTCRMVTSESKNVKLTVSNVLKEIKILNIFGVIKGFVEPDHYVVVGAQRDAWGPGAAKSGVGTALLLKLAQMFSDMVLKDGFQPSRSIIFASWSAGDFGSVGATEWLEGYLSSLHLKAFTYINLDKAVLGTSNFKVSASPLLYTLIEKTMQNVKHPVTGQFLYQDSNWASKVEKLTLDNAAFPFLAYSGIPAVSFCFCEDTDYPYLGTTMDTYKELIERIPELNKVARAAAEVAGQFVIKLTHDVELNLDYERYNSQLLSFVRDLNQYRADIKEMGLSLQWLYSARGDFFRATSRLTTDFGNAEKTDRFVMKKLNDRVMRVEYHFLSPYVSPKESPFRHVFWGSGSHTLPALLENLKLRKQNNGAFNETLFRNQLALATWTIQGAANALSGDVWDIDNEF

hCD71, RLU	Binder
1.08e+06 RLU	B1
3.91e+06 RLU	B2
653000 RLU	B3
2.57e+06 RLU	B4
4.27e+06 RLU	B5
2.46e+06 RLU	B6
385000 RLU	B7
1.56e+06 RLU	B8
3.78e+06 RLU	B9
1.22e+06 RLU	B10
3.61e+06 RLU	B11
1.71e+06 RLU	B12
4.17e+06 RLU	B13
4.99e+06 RLU	B14
4.91e+06 RLU	B15
779000 RLU	B16
358000 RLU	B17
2.13e+06 RLU	B18
1.4e+06 RLU	B19

hCD71, RLU	Binder
814000 RLU	B20
2.94e+06 RLU	B21
4.32e+06 RLU	B22
290000 RLU	B23
844000 RLU	B24
513000 RLU	B25
197000 RLU	B26
4.14e+06 RLU	B27
185000 RLU	B28
1.3e+06 RLU	B29
652000 RLU	B30
4.46e+06 RLU	B31
682000 RLU	B32
339000 RLU	B33
3.68e+06 RLU	B34
653000 RLU	B35
764000 RLU	B36
1.13e+06 RLU	B37
865000 RLU	B38

molecular target: T2, CD71 apical domain (UniProt P02786 189-383, limits assumed); test: solution ELISA
T2 construct: domain: Apical domain
T2 sequence (P02786 189-383 limits assumed): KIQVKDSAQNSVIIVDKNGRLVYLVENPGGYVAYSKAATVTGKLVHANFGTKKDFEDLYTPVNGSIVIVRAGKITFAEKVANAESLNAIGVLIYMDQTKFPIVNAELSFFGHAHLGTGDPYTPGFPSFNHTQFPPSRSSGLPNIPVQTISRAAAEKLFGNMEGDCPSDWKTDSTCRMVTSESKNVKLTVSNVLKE

Apical domain, RLU	Binder
5.72e+06 RLU	B1
7.2e+06 RLU	B2
3.88e+06 RLU	B3
98900 RLU	B4
7.35e+06 RLU	B5
6.71e+06 RLU	B6
4.89e+06 RLU	B7
6.16e+06 RLU	B8
8.42e+06 RLU	B9
6.08e+06 RLU	B10
7.39e+06 RLU	B11
6.12e+06 RLU	B12
128000 RLU	B13
8.01e+06 RLU	B14
8.37e+06 RLU	B15
5.54e+06 RLU	B16
5.24e+06 RLU	B17
5.93e+06 RLU	B18
6.78e+06 RLU	B19

Apical domain, RLU	Binder
4.86e+06 RLU	B20
6.89e+06 RLU	B21
7.16e+06 RLU	B22
3.41e+06 RLU	B23
5.38e+06 RLU	B24
4.86e+06 RLU	B25
2.84e+06 RLU	B26
7.21e+06 RLU	B27
4.43e+06 RLU	B28
3.16e+06 RLU	B29
5.46e+06 RLU	B30
8.31e+06 RLU	B31
4.78e+06 RLU	B32
3.96e+06 RLU	B33
7.29e+06 RLU	B34
5.48e+06 RLU	B35
4.96e+06 RLU	B36
6.95e+06 RLU	B37
4.95e+06 RLU	B38

molecular target: T1, recombinant biotinylated human CD71 …; test: solution ELISA, signal ratio to HSA

hCD71:HSA	Binder
63.7	B1
186	B2
61.6	B3
21.5	B4
103	B5
104	B6
16.4	B7
91.2	B8
147	B9
34	B10
94.9	B11
61.2	B12
23.2	B13
312	B14
175	B15
33.7	B16
13.3	B17
84.6	B18
29.6	B19

hCD71:HSA	Binder
19.6	B20
204	B21
313	B22
21.1	B23
50.6	B24
27.7	B25
14.5	B26
241	B27
14.4	B28
12.7	B29
44	B30
203	B31
39	B32
16	B33
127	B34
35.3	B35
55.4	B36
50.3	B37
45	B38

molecular target: T2, CD71 apical domain; test: solution ELISA, signal ratio to HSA

apical domain:HSA	Binder
337	B1
342	B2
366	B3
0.8	B4
177	B5
286	B6
208	B7
361	B8
328	B9
170	B10
194	B11
219	B12
0.7	B13
500	B14
299	B15
239	B16
195	B17
235	B18
144	B19

apical domain:HSA	Binder
117	B20
478	B21
519	B22
248	B23
322	B24
263	B25
209	B26
420	B27
345	B28
30.8	B29
369	B30
378	B31
273	B32
186	B33
252	B34
296	B35
359	B36
310	B37
257	B38

Reference: US20220332795A1 (ARO BIOTHERAPEUTICS, published 2022)
